Source: EP1899377B1 (GLAXO GROUP LIMITED, dated 2012)
Where a chain is given by its changes, count along the chain named.

B1: H22L16 (antibody, human IgG1, kappa, V domains shown)
VH: QVQLVQSGAEVKKPGASVKVSCKASGYTFTSYWMHWVKQRPGQGLEWIGNINPSNGGTNYNEKFKSKATMTRDTSTSTAYMELSSLRSEDTAVYYCELGQGYWGQGTLVTVSS
VL: DIVMTQSPLSNPVTLGQPVSISCRSSKSLLYKDGKTYLNWFLQRPGQSPQLLIYLMSTRASGVPDRFSGGGSGTDFTLKISRVEAEDVGVYYCQQLVEYPLTFGQGTKLEIKR
notes: human gamma1 mutated constant region, human kappa
B2: H16L16 (antibody, human IgG1, kappa)
heavy: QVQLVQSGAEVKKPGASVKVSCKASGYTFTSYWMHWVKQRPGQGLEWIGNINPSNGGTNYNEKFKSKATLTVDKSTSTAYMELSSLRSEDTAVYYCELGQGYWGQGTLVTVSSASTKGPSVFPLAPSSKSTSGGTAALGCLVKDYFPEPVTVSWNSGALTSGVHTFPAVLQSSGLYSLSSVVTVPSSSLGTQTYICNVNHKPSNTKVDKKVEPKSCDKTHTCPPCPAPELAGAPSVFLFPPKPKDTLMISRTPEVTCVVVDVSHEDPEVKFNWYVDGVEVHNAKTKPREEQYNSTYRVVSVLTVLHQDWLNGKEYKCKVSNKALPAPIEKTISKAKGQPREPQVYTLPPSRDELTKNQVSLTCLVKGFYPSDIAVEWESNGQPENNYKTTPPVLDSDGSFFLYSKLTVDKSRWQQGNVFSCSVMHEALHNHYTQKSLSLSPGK
light: DIVMTQSPLSNPVTLGQPVSISCRSSKSLLYKDGKTYLNWFLQRPGQSPQLLIYLMSTRASGVPDRFSGGGSGTDFTLKISRVEAEDVGVYYCQQLVEYPLTFGQGTKLEIKRTVAAPSVFIFPPSDEQLKSGTASVVCLLNNFYPREAKVQWKVDNALQSGNSQESVTEQDSKDSTYSLSSTLTLSKADYEKHKVYACEVTHQGLSSPVTKSFNRGEC
B3: H19L16 (antibody, human IgG1, kappa, V domains shown)
VH: B1 VH with K38R, K67R
VL: B1 VL
B4: H16L18 (antibody, human IgG1, kappa, V domains shown)
VH: B1 VH with M70L, R72V, T74K
VL: B1 VL with S7D, P64S, G70S
B5: H24L16 (antibody, human IgG1, kappa, V domains shown)
VH: B1 VH with M70L, R72V
VL: B1 VL
notes: as for B1
B6: H1L11 (antibody, human IgG1, kappa, V domains shown)
VH: B1 VH with K38R, R40A, I48M, K67R, A68V, A79V
VL: B1 VL with M4I, N11L, V19A, L42Q
B7: H16L13 (antibody, human IgG1, kappa)
heavy: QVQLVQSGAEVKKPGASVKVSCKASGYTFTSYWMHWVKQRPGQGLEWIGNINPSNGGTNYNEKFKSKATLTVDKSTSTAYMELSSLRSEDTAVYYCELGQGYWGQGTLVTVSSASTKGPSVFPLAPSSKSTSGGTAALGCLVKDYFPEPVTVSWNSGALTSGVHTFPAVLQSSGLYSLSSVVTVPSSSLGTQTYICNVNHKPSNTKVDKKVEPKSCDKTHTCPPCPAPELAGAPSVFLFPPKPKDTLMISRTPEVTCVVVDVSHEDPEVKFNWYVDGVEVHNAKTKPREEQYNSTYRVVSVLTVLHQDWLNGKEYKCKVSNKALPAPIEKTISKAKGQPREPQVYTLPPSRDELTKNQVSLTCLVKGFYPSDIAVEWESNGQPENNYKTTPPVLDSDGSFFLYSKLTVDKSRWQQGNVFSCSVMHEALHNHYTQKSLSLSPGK
light: B2 light with N11L, V19A, L42Q
B8: H22Lc (antibody, human IgG1, kappa, V domains shown)
VH: B1 VH
VL: DIVITQDELSNPVTSGESVSISCRSSKSLLYKDGKTYLNWFLQRPGQSPQLLIYLMSTRASGVSDRFSGSGSGTDFTLEISRVKAEDVGVYYCQQLVEYPLTFGAGTKLELKR
B9: H19L13 (antibody, human IgG1, kappa, V domains shown)
VH: B1 VH with K38R, K67R
VL: B1 VL with N11L, V19A, L42Q
B10: H20L16 (antibody, human IgG1, kappa, V domains shown)
VH: B1 VH with K38R, R40A
VL: B1 VL
notes: human gamma1 mutated constant region, human kappa; also called H20L16 FL
B11: H23L16 (antibody, human IgG1, kappa, V domains shown)
VH: B1 VH with R72V
VL: B1 VL
notes: as for B1
B12: H21L13 (antibody, human IgG1, kappa, V domains shown)
VH: B1 VH with K38R
VL: B1 VL with N11L, V19A, L42Q
B13: H23L13 (antibody, human IgG1, kappa, V domains shown)
VH: B1 VH with R72V
VL: B1 VL with N11L, V19A, L42Q
B14: H24L13 (antibody, human IgG1, kappa, V domains shown)
VH: B1 VH with M70L, R72V
VL: B1 VL with N11L, V19A, L42Q
B15: HcLc (antibody, human IgG1, kappa, V domains shown)
VH: QVQLQQPGTELVKPGASVKLSCKASGYTFTSYWMHWVKQRPGQGLEWIGNINPSNGGTNYNEKFKSKATLTVDKSSSTAYMQLSSLTSEDSAVYYCELGQGYWGQGTLVTVSS
VL: B8 VL
notes: also called chimera of 2A10; 2A10 chimeric antibody
B16: H23Lc (antibody, human IgG1, kappa, V domains shown)
VH: B1 VH with R72V
VL: B8 VL
B17: H20Lc (antibody, human IgG1, kappa, V domains shown)
VH: B1 VH with K38R, R40A
VL: B8 VL
B18: H21Lc (antibody, human IgG1, kappa, V domains shown)
VH: B1 VH with K38R
VL: B8 VL
B19: H24Lc (antibody, human IgG1, kappa, V domains shown)
VH: B1 VH with M70L, R72V
VL: B8 VL
B20: H19Lc (antibody, human IgG1, kappa, V domains shown)
VH: B1 VH with K38R, K67R
VL: B8 VL
B21: H6L13 (antibody, human IgG1, kappa, V domains shown)
VH: B1 VH with K38R, R40A, K67R
VL: B1 VL with N11L, V19A, L42Q

Target: T1, GST-human NOGO-A56 (human, UniProt Q9NQC3 586-785)
T1 construct: GST-tagged fusion expressed in E. coli BL21 from pGEX-6P1; also called hNOGO; human NOGO 5+6 GST; not shown: Glutathione S-transferase tag encoded by vector pGEX-6P1 (N-terminal, with vector linker)
T1 sequence: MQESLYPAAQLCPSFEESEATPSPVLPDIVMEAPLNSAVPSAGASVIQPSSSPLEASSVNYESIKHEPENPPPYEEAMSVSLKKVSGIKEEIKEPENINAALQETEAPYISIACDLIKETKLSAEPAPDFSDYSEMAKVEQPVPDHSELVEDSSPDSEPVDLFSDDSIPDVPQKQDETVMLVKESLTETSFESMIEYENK
Assay: SPR off-rate ranking, supernatant from small-scale transient transfection over immobilised GST-human NOGO-A56; single experiment

Binder | koff
B1 | 0.00778 s⁻¹
B2 | 0.00577 s⁻¹
B3 | 0.00873 s⁻¹
B4 | 0.00566 s⁻¹
B5 | 0.00585 s⁻¹
B6 | 0.0196 s⁻¹
B7 | 0.0138 s⁻¹
B8 | 0.00467 s⁻¹
B9 | 0.013 s⁻¹
B10 | 0.00718 s⁻¹
B11 | 0.00606 s⁻¹
B12 | 0.012 s⁻¹
B13 | 0.00956 s⁻¹
B14 | 0.00996 s⁻¹
B15 | 0.00392 s⁻¹
B16 | 0.00342 s⁻¹
B17 | 0.00507 s⁻¹
B18 | 0.00569 s⁻¹
B19 | 0.00383 s⁻¹
B20 | 0.00595 s⁻¹

Target: T1, GST-human NOGO-A56
Assay: SPR (Biacore T100), reverse format: antibody captured on Protein A, human NOGO 5+6 GST as analyte, 1:1 model; mean (SD) of 5 or 6 runs

Binder | Kd | koff | kon
B10 | 0.31 nM | 0.000313 s⁻¹ | 1.01e+06 M⁻¹ s⁻¹
B15 | 0.41 nM | 0.000569 s⁻¹ | 1.38e+06 M⁻¹ s⁻¹

Target: T1, GST-human NOGO-A56
Assay: SPR (Biacore), GST-human NOGO-A56 immobilised, purified antibody as analyte; single experiment (value said to be not typical)

Binder | Kd | koff | kon
B2 | 3.4 nM | 0.004 s⁻¹ | 1.2e+06 M⁻¹ s⁻¹

Target: T1, GST-human NOGO-A56
Assay: SPR (Biacore), GST-human NOGO-A56 immobilised, purified antibody as analyte; single experiment

Binder | Kd | koff | kon
B1 | 1.32 nM | 0.00767 s⁻¹ | 5.83e+06 M⁻¹ s⁻¹
B5 | 2.49 nM | 0.00572 s⁻¹ | 2.3e+06 M⁻¹ s⁻¹
B6 | 21 nM | 0.0282 s⁻¹ | 1.34e+06 M⁻¹ s⁻¹
B10 | 1.61 nM | 0.00847 s⁻¹ | 5.24e+06 M⁻¹ s⁻¹
B11 | 1.99 nM | 0.00587 s⁻¹ | 2.95e+06 M⁻¹ s⁻¹
B21 | 7.76 nM | 0.0157 s⁻¹ | 2.02e+06 M⁻¹ s⁻¹
B15 | 1.42 nM | 0.0035 s⁻¹ | 2.46e+06 M⁻¹ s⁻¹

Target: T1, GST-human NOGO-A56
Assay: as above
Remark: another data set of the same source

Binder | Kd | koff | kon
B1 | 1.33 nM | 0.00759 s⁻¹ | 5.69e+06 M⁻¹ s⁻¹
B6 | 18.4 nM | 0.0219 s⁻¹ | 1.19e+06 M⁻¹ s⁻¹
B7 | 2.53 nM | 0.0121 s⁻¹ | 4.76e+06 M⁻¹ s⁻¹
B21 | 8.1 nM | 0.0155 s⁻¹ | 1.91e+06 M⁻¹ s⁻¹
B15 | 1.59 nM | 0.00369 s⁻¹ | 2.32e+06 M⁻¹ s⁻¹

Target: T1, GST-human NOGO-A56
Assay: as above
Remark: another data set of the same source

Binder | Kd | koff | kon
B1 | 1.47 nM | 0.0069 s⁻¹ | 4.9e+06 M⁻¹ s⁻¹
B5 | 3.7 nM | 0.0069 s⁻¹ | 1.9e+06 M⁻¹ s⁻¹
B6 | 22.3 nM | 0.031 s⁻¹ | 1.4e+06 M⁻¹ s⁻¹
B10 | 1.7 nM | 0.0073 s⁻¹ | 4.4e+06 M⁻¹ s⁻¹
B11 | 3.8 nM | 0.0064 s⁻¹ | 1.9e+06 M⁻¹ s⁻¹
B21 | 6.4 nM | 0.014 s⁻¹ | 2.2e+06 M⁻¹ s⁻¹
B15 | 1.7 nM | 0.0044 s⁻¹ | 2.6e+06 M⁻¹ s⁻¹

Target: T1, GST-human NOGO-A56
Assay: SPR (Biacore), GST-human NOGO-A56 immobilised, purified antibody as analyte; mean (SD) of 12 runs

Binder | Kd | koff | kon
B10 | 1.86 nM | 0.0102 s⁻¹ | 5.43e+06 M⁻¹ s⁻¹
B15 | 1.9 nM | 0.00754 s⁻¹ | 3.92e+06 M⁻¹ s⁻¹
